In patent US20190085033A1 (published 2019):

Target: BG505-gp120
Assay: SPR

B1: 4025 (antibody, V domains shown)
VH: EVQLVQSGAEVKKPGESLKISCKASGYSFSSYWIAWVRQMPGKGLEWMGFIYPADSDTRYSPSFQGQGTISADKSISTAYLQWSSLKASDTAMYYCAILGFWGANRGGGGMDVWGQGTTVIVSS
VL: SYELTQPPSVSVSPGQTARITCSGDALPEKYAYWYQQKSGQAPVLIIYEDSKRPSGIPERFSGSRSGTMATLTISGAQVDDEADYYCYSTNSGGTFFVFGTGTKVTVLG
B1 was tested, and the Kd was 75 nM.
